Laboratory results as given in the RNAGym collection of RNA variant scans (doi:10.1073/pnas.2313332121).

B1: TPR t1 (parent)
chain: GACCAAUCUGCCCUCAGAGCUCGAGAACAUCUUCGGAUGCAGAGGAGGCAGGCUUCGGUGGCGCGAUAGCGCCAACGUCCUCAACCUCCAAUGCAUCCCACCACAUGAUGAUGCCUGAAGAGCCUUGGUUUUUUG

Variants of: B1
Assay: polymerase ribozyme fitness, log enrichment relative to wild type (log ratio); higher = more active; in vitro selection for triplet polymerase activity
Method in brief: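 Only genotypes with ≥10 input reads and ≥1 read per output were kept after Illumina sequencing of input and output libraries. These libraries were PCR-built, transcribed mutants of each subunit of a heterodimeric triplet polymerase ribozyme, each put through one triplicate in vitro selection round with frozen incubation at −7 °C, gel excision of extended constructs, streptavidin-bead capture and RT-PCR. Fitness is a logarithmic ratio of genotype enrichment to wild-type enrichment, from inverse-variance-weighted replicate averages, with the logarithm in base 2.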

Variant	polymerase ribozyme fitness (log ratio)
GACCAAUGUGCCCUCAGAGCUCGAGAACAUCUUCGGAUGCAGAGGAGGCAGGCUUCGGUGGCGCGAUAGCGCCAACGUCCUCAACCUCCAAUGCAUCCCACCACAUGAUGAUGCAUGAAGAGCCUUGGUUUUUUG [C8G C115A]	0.863
GACCAAUGUGCCCUCAUAGCUCGAGAACAUCUUCGGAUGCAGAGGAGGCAGGCUUCGGUGGCGCGAUAGCGCCAACGUCCUCAACCUCCAAUGCAUCCCACCACAUGAUGAUGCCUGAAGAGCCUUGGUUUUUUG [C8G G17U]	-0.274
GACCAAUGUGCCCUCAGAGGUCGAGAACAUCUUCGGAUGGAGAGGAGGCAGGCUUCGGUGGCGCGAUAGCGCCAACGUCCUCAACCUCCAAUGCACCCCACCACAUGAUGAAGCCUGAAGAGCCUUGGUUUUUUG [C8G C20G C40G U96C U112A]	-6.13
GACCAAUGUGCCCUCAGAGCUCGAGAACAUCUUCGGAUGCAGAGGAGGCAGGCUUCGGUGGCGCGAUAGCGCCAACGUCCUCAACCUCCAAUGCAUCCCACCACAUGAUGAUGCCUGAAGAGCAUUGGUUUUUUG [C8G C124A]	2.31
GACCAAUGUCCCCUCAGAGCUCGAGAACAUCUUCGGAUGCAGAGGAGGCAGGCUGCGGUGGCGCGAUAGCGCCAACGUCCUCAACCUCCACUGCAUCCCACCACAUGAUGAUGCCUGAAGAGCCUUGGUUUUUUG [C8G G10C U55G A91C]	-1.21
GACCAAUGUGCCCUCAGAGCUCGAGAACAUCUUCGGAUGCAGAGGAGGCAGGCUUCGGUGGCGCGAUAGCGCCAACGUCCUCAACCUCCAAUGCAUCCCACCAAAUGAUGAUGCCUGAAGAGCCUUGGUUUUUUG [C8G C104A]	-0.951
GACCAAUGUGCCCUCAGAGUUCGAGAACAUCUUCGGAUGCAGAGGAGGCAGGCUUCGGUGGCGCGAUAGCGCCAACGUCCUCAUCCUCCAAUGCAUCCCACCACAUGAUGAUGCCUGAAGAUCCUUGGUUUUUUG [C8G C20U A84U G122U]	-0.907
GACCAAUGUGCCCUCAGAGCUCGAGAACAUCUUCGGAUGCAGAGGAGGCAGGCUUCGGUGGCGCGAUAGCGCCAACGUCCUAAACCUCCAAUGCAUACCACCACAUGAUGAUGCCUGAAGAGCCUUGGUUUUUUG [C8G C82A C97A]	-4.13
GACCAAUGUGCCCUCAGAGCUUGAGAACAUCUUCGGAUGCAGGGGAGGCAGGCUUCGGUGGCGCGAUAGCGCCAACGUCCUCAACCUUCAAUGCAUACUAUGACAUGAUCAUGCCUGAAGAGCCUUGGUUUUUUG [C8G C22U A43G C88U C97A C99U C101U C102G G110C]	-6.9
GACCAAUGUGCCCUCAGAGCUCGAGAACAUCUUCGGAUGCAGAGGAGGCAGGCUUCGGUGGCGCGAUAGCGCUAACGUCCUCAACUUCCAAUGCAUCCCACCACAUGAUGAUGCCUGAAGAGCCUUGGUUUUUUG [C8G C73U C86U]	0.186
GACCAAUGUGCCCUCAGAGCUGGAGAACAUCUUCGGAUGCAGAGGAAGCAGGCUUCGGUGGCGCGAUAGUGCCAACUUCCUCAACCUCCAAUGCAUCCCACCACAUGAUGAUGCCUGAAGAGCCUUGGUUUUUUG [C8G C22G G47A C70U G77U]	-4.84
GACCAAUGUGCCCUCAGAGCUCGAGAACAUCUUCGGAUGCAGAGGAGGCAGGCUUCGGUGGCGCGAUAGCGCCAACGUCCUCAACCUCCAAUGCAUCACACAACAUGAUGAUGCAUGAAGAGCCUUGGUUUUUUG [C8G C98A C102A C115A]	-3.34
GACCAAUGUGCCCUCAGAGCUCGAGAACAUCUUCGGAUGCAGAGGAGGCAGGAUUCGGUGGCGCGAUAGCGCCAACGUCCUCAACCUCCAAUGCAUCCCACCACAUGAUGAUGCCUGAAGAGCCUUGGUUUUUUG [C8G C53A]	0.628
GACCAAUGUGCCCUUAGAGCUCGAGAACAUCUUCGGAUGCAGAGGAGGAAGGCUUCGGUGGCGCGAUAGCGCCAACGUCCUCAACCUCCAAUCCAUCCCACCACAUGAUGAUGCCUGAAGAGCCUUGGUUUUUUG [C8G C15U C49A G93C]	-1.27
GACCAAUGUGCCCUCAGAGCUCGAGAACAUCUUCGGAUGCAGAGGAGGCAGGCUUCGGUGGCGCGAUAGCGCCAACGUCCUCAACCUCCAAUGCAUCCCACCACAUGAUGAUGACUGAAGAGCCUUGGUUUUUUG [C8G C114A]	0.0806
GACCAAUGUGCCCUCAGAGCUCGAGAACAUCUUCGGAUGCAGAGGAGGCAGGCUUCGGUGGCGCGAUAGCGCCAACGUCCUCAACCUCCAAUGCAUCCCACCAGAUGAUGAUGCCCGAAGUUCCUUGGCUUUUUG [C8G C104G U116C A121U G122U U129C]	-7.72
GACCAAUGUGCCCUCAGAGCUCGAGAACAUCUUCGGAUGCAGAGGAGGCAGGCUUCGGUGGCGCGAUAGCGCCAACGUCCUCAACCUCCAAUGCAUCCCAACACAUGAUGAUGCCUGAAGAGCCUUGGUUUUUUG [C8G C101A]	-0.236
GACCAAUGUGCCCUCAGAGCUCGAGAACAUCUUCGGAUGCAGAGGAGGCAGGCUUCGGUGGCGCGAUAGCGUCAACGUCCUCAACCUCAAAUGCAUCCCACCACUUGAUGAUGCCUGAAGAGCCUUGGUUUUUUG [C8G C72U C89A A105U]	-3.93
GACCAAUGUGCCCUCAGAGCUCGAGAACAUCUUCGGAUGCAGAGGAGGCAGGCUUCGGUGGCGCGAUAGCGCCAACGUCCUCAACCUCCAAUGCAUCCCACUACAUGAUGAUGCCUGAAGAGCCUUGGUUUUUUG [C8G C102U]	-1.57
GACCAAUGUGCCCUCAGAGCUCGAGAACAUCUUCGGAUGCAGAGGAGGCAGGCUUCGGUGGCGCGAUAGCGCCAACGUCCUCAACCUCAAAUGCAUCCCACCACAUGAUGAUGUCUGAAGAGCCUUGGUUUUUUG [C8G C89A C114U]	-0.406
GACCAAUGUGCCCUCAUAGCUCGAGAACAUCUUCGGAUGCAGAGGAGACAGGCUUCUGUGGCGCGAUAGCGCCAACGUCCUCAACCUCCAAUGCAUCCCACCACAUGAUGAGGUCUGAAGAGCCUUGGUUUUUUG [C8G G17U G48A G57U U112G C114U]	-5.14

Variant	polymerase ribozyme fitness (log ratio)
GACCAAUGUGCCCUCAGAGCUCGAGAACAUCUUCGGAUGCAGAGGAGGCAGGCUUCGGUGGCGCGAUAGCGCCAACGUCCUCAACCUCAAAUGGAUCCCACCACAUGAUGAUGCCUGAAGAGCCUUGGUUUUUUG [C8G C89A C94G]	-2.14
GACCAAUGUGCCCUCAGAGCUCGAGAACAUCUUCGGAUGCAGAGGAGGCAGGCUUCGGUGGCGCGAUAGCGCCAACGUCGUCAACCUCCAAUGCAUCCCACCACAUGAUGAUGCCUGAAGAGCCUUGGUUUUUUG [C8G C80G]	-4.19
GACCAAUGUGCCCUCAGAGCUCGAGAACAUCUUCGGAUGCAGAGGAGGCAGGCUUCGGUGGCGCGAUAGCGCGAACGUCCUCAACCUCCAGUGCAUCCCACCACAUGAUGAUGCCUGAAGAGCCUUGGUUUUUUG [C8G C73G A91G]	-1.87
GACCAAUGUGCCCUCAGAGCUCGAGAACAUCUUCGGAUGCAGAGGAGGCAGGCUUCGGUGGCGCGAUAGCGCCAACGUCCUUAACCUCCAAUGCAUUCCACCACAUGAUGAUGCCUGAAGAGCCUUCGUUUUUUG [C8G C82U C97U G127C]	-0.232
GACCAAUGUGCCCUCAGAGCUCGAGAACAUCUUCGGAUGCAGAGGAGGCAGGCUUCGGUGGCGCGAUAGCGCCAACGUCCUCAACCUCCAAUGCAUCCCACCACAUGAUGAUGUCUGAAGAGACUUGGUUUUUUG [C8G C114U C123A]	-0.55
GACCAAUGUGCCCUCAGAGCUCGAGAACAUCUUCGGAUGCAGAGGAGGCAGGCUUGGGUGGCGCGAUAGCGCCAACGUCCUCAACCUCCAAUGCAUCCCACCACAUGAUGAUGCCUGAAGAGCCUUGGUUUUUUG [C8G C56G]	0.255
GACCAAUGUGCCCUCAGAGCUCGAGAACAUCUUCGGAUGCAGAGGAGGCAGGCUUCGGUGGCGCGAUAGCGACAACGUCCUCAACCUCCAAUGCAUCCCACAACAUGAUGAUGCCUGAAGAGCCUUGGUUUUUUG [C8G C72A C102A]	-1.22
GACCAAUGUGCCCUCAGAGCUCGAGAACAUAUUCGGAUGCAGAGGAGGCCGGCUUCGGUGGCGCGAUAGCGCCAACGUCCUCAACCUCCAAUGCAUCCCACCACAUGAUGAUUCCUGAAGAGCCUUGGUUUUUUG [C8G C31A A50C G113U]	-5.53
GACCAAUGUGCCCUCAGAGGUCGAGAACAUCUUCGGAUGCAGAGGAGGCAGGCUUCGGUGGCACGAUAGCGCCAACGUCCUCAACCUCCAAUGCAUCCCACCACAUGAUGAUGCCUGAAGAGCGUUGGUUUUUUG [C8G C20G G63A C124G]	-4.75
GACCAAUGUGCCCUCAUAGCUCGAGUACAUCUUCGGAUGCAGAGGAGGCAGGCUUCGGUGGCGCGAUAGCGCCAACGUCCUCAACCUCCAAUGCAUCCCACCACAUGAUGAUGCCUGAAUAGCCUUGGUUUUUUG [C8G G17U A26U G120U]	-2.91
GACCAAUGUGCCCUCAGAGCUCGAGAACAUCUUCGGAUGCAGAGGAGGCAGGCUUCGGUGGCGCGAUAGCGCCAACGUCCUCAACAUCCAAUGCAUCCCACCACCUGAUGAUGCCUGAAGAGCCUUGGUUUUUUG [C8G C86A A105C]	-1.39
GACCAAUGUGCCCUCAGAGAUCGAGAACAUCUUCGGAUGCAGAGGAGGCAGGCUUCGGUGGCGCGAUAGCGCCAACGUCCUUAACCUCCAAUGCAUCCCCCCACAUGAUGACGCCUGAAGAGCCUUGGUUUUUUG [C8G C20A C82U A100C U112C]	-3.16
GACCAAUGUGCCCUCAGAGUUCGAGAACAUCUUCGGAUGCAGAGGUGGCAGCCUUCGGUGGCGCGAUAGCGCCAACGUCCUCAACCUCCAGUGCAUCCCACCACAUGAUGAUGCCUGAAGAGCCUUGGUUUUUUG [C8G C20U A46U G52C A91G]	-4.53
GACCAAUGUGCCCUCAGAGCUCGAGAACAUCUUCGGAUGCAGAGGAGGCAGGCUUCGGUGGCGCGAUAGCGCUAACGUCCUCAACCUCCAGUGCAUCCCAGCACAUGAUGAUGCCUGAAGAGCCUUGGUUUUUUG [C8G C73U A91G C101G]	-2.3
GACCAAUGUGCCCUUAGAGCUCGAGAACAUCUUCGGAUGCAGAGGAGGCAGGCUUCGGUGGCGCGAUAGCGCCAACGUCCUCAACCUCGAAUACAUCCCAUCACAUGAUGAUCUCUGAAGAGCCUUCGUUUUUUG [C8G C15U C89G G93A C101U G113C C114U G127C]	-3.86
GACCAAUGUGCCCUCACAGCUCGAGAACAUCUUCGGAUGCAGAGGAGGCAGGUUUCGGUGGCGCGAUAGCGCCAACGUCCUCAACCUCCAAUGCAUCCCACCACAUGAUGAUGCCUGAAGAGCCUUGGUUUUUUG [C8G G17C C53U]	-2.9
GACCAAUGUGCCCUCAGAGCUCGAGAACAUCUUCGGAUGCAGAGGAGGCAGGCUUGGGUGGCCCGAUAGCGCCAACGUCCUCAACCUCCAAUGCAUCCCACCACAUGAUGAUGCCUGAAGAGCCUCGGUUUUUUG [C8G C56G G63C U126C]	-3.33
GACCAAUGUGCCCUCAGAGCUCGAGAACAUCUUCGGAUGCAGAGGAGGAAGGCUUCGGUGGCGCGAUAGCGCCAACGUCCUCAACCUCCAAUGCAGCCCACCACAUGAUGAUGCCUGAAGAGCCUUGGUUUUUUG [C8G C49A U96G]	0.183
GACCAAUGUGCCCUUAGAGCUCGAGAACAUCUUCGGAUGCAGAGGCGGCAGGCUUCGGUGGCGCGAUAGCGUCAACGUCCUCAACCUCCAAUACAUCCCACCACAUGAUAAUGCCUGAAGAGCCUUGGUUUUUUG [C8G C15U A46C C72U G93A G110A]	-2.41
GACCAAUGUGCCCUCAGAGCUCGAGAACAUAUUCGGAUGCUGAGGAGGCAGGCUUCGGUGGCGCGAUAGCGCGAACGUCCUCAACCUCCAAUGCAUCCCACCACAUGAUGAAGCCUGAAGAGCCUUGGUUUUUUG [C8G C31A A41U C73G U112A]	-6.12
GACCAAUGUGCCCUCAGAGCUCGAGAACAUCUUCGGAUGCAGAGGAGGCAGGCUUCGGUGGCGCGAUAGCGCCAACGUCCUCAACCUACAAUGCAUCCCACCACAUGAUGCUGCCUGAAGAGCCUUGGUUUUUUG [C8G C88A A111C]	0.461
